The target in assay [1] is recombinant 0076 protein (ferritin encoded by mycma_0076) from Mycobacterium abscessus subsp. massiliense GO06 (Mycobacterium abscessus subsp. massiliense GO06). Put plainly: SEC; Superdex 200 10/300 GL, 50 mM NaH2PO4 pH 8.0, 300 mM NaCl, 1 ml/min, calibrated with molecular weight standards; apparent mass.
The target is the same in assay [2]. Put plainly: dynamic light scattering; r0076 1 mg/ml in 50 mM NaH2PO4 pH 8.0, 50 mM NaCl; RH converted to mass assuming a spherical particle; 20 to 90°C.

The stoichiometry N is the number of molecules, sites or subunits per partner or assembly. With “recombinant 0076 protein (ferritin encoded by mycma_0076) from Mycobacterium abscessus subsp. massiliense GO06 (natural protein)”, the stoichiometry N in assay [1] and in assay [2] was 24 subunits throughout.

The record behind these values is article PMC5992710.
